Test results reported in patent US20190375826A1.
Like-named read-outs stand apart in the source and are kept apart here.

What was measured:
[1] = biological target: DENV3 NS1 (nonstructural protein 1 of dengue virus type 3 strain H87) (dengue virus serotype 3, strain H87)
[2] = biological target: DENV3 NS1 (nonstructural protein 1 of dengue virus type 3 strain H87) (dengue virus serotype 3, strain H87); remark: listed apart in the source
[3] = biological target: DENV2 NS1 (nonstructural protein 1 of dengue virus type 2 strain 16681) (dengue virus serotype 2, strain 16681)
[4] = biological target: DENV2 NS1 (nonstructural protein 1 of dengue virus type 2 strain 16681) (dengue virus serotype 2, strain 16681); remark: listed apart in the source
[5] = biological target: DENV4 NS1 (nonstructural protein 1 of dengue virus type 4 strain H241) (dengue virus serotype 4, strain H241)
[6] = biological target: DENV4 NS1 (nonstructural protein 1 of dengue virus type 4 strain H241) (dengue virus serotype 4, strain H241); remark: listed apart in the source

B1: mAb43-1.3 (antibody, V domains shown)
VH: GELQESGPQVVRPGTSVKISCKASGYSFSNYWMHWVKQRPGQGLEWIGVIDPSDSETRLNQKFKDKATLTVDKSSSTAYMQLSSPTSEDSAIYYCARSQFGLRFAYWGQGTLVTVSA
VL: DIVMTQSPSSMTVTAGEKVTMSCQSSQSLFNSGTQKNYLTWYQQKPGQPPKLLISWASTRDSGVPDRFTGSGSGTDFTLTINGVQAEDLAVYFCQNDYDSPYTFGGGTKLEIKR
- minimum detectable concentration of NS1 proteins [1]: 62.5 ng/mL
- minimum detectable concentration of NS1 proteins [2]: 3.91 ng/mL

B2: mAb33-7.1 (antibody, V domains shown)
VH: EVQLQESGAELAKPGASVKMSCKASGYTFTSYWMHWVKQRPGQVLEWIGYINPNTGFTEYSQKFKDKATLTAVKSSSTAYIQLTSLTSDDSAVYYCARENYRYDGAMDYWGQGTSVTVSS
VL: DIVLTQSPALMAAFPGDRVTITCSVSSSVSSSNLHWYQQKSETSPKPWIYGTSTLASGVPVRFSGSGSGTSYSLTISSMEAEDAATYYCQQWSSYPLTFGAGTKLELKR
- minimum detectable concentration of NS1 proteins [3]: 62.5 ng/mL
- minimum detectable concentration of NS1 proteins [4]: 3.91 ng/mL

B3: mAb22-1.5 (antibody, V domains shown)
VH: EVQLQQSGPELVKPGASVKISCKASGYTFTDYNIHWVKQSPGKSLEWIGYIYPDNGDTGYNQIFKNKATLTVDTSSSAAYMELRSLTSEDSAVYYCVRRVLLDSWGQGTSVTVSS
VL: DIQMTQTTSSLSASLGDRVTISCSASQDINNFLNWYQQKPDGTIKLLIYYTSSLQSGVPSRFSGSGSGTDYSLTISNLEPEDIATYYCQQYSKLPRTFGGGTKLEIKR
- minimum detectable concentration of NS1 proteins [5]: 62.5 ng/mL
- minimum detectable concentration of NS1 proteins [6]: 0.977 ng/mL
